Assay results published in paper PMC6706451, “Crystal structure and substrate-induced activation of ADAMTS13” (Nature Communications, 2019).

T1: ADAMTS13 (human, UniProt Q76LX8 75-1427)
T1 construct: ADAMTS13, recombinant; holds TSP2-4 (detected with an anti-ADAMTS13 TSP2-4 polyclonal antibody); The introduction says the short propeptide is removed before secretion; also called recombinant ADAMTS13
T1 sequence (looked up): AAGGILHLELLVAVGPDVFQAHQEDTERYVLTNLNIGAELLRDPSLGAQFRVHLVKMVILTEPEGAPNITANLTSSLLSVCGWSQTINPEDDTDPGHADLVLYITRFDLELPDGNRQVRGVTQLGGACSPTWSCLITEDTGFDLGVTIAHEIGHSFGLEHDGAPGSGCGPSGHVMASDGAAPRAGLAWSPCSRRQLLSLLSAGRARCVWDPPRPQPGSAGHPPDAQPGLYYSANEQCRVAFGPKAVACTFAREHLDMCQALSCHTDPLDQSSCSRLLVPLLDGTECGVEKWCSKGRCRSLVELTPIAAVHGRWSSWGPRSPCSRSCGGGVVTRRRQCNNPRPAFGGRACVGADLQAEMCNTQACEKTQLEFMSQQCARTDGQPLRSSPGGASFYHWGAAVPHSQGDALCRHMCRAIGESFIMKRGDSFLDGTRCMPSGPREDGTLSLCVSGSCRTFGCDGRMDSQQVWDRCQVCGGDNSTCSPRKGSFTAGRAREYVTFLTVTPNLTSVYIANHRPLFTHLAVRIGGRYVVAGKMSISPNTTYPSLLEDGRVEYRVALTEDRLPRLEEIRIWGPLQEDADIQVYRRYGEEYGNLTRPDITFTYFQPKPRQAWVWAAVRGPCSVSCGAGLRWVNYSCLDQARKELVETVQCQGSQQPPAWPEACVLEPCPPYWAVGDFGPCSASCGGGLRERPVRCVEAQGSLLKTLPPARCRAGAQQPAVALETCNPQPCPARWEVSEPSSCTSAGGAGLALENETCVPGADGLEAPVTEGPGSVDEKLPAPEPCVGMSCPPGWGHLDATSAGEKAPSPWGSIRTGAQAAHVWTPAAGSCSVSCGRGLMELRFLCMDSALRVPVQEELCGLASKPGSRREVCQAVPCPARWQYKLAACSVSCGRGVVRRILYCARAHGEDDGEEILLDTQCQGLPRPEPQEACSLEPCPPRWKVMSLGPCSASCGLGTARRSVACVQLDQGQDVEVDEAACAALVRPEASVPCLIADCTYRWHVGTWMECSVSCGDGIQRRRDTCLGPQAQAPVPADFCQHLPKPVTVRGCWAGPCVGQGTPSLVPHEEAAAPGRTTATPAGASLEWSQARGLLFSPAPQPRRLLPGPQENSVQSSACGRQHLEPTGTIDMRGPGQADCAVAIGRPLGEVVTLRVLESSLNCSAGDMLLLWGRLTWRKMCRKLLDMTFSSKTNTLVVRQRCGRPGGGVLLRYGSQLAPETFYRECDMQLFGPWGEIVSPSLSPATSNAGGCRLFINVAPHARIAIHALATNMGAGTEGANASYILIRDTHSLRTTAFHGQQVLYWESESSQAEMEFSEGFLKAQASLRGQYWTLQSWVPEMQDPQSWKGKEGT

T2: ADAMTS13 MDTCS(E225Q) (human, UniProt Q76LX8 78-682, E225Q, N-linked glycans at Asn142, Asn146, Asn552, Asn579, Asn614, Asn667 and an O-linked glycan on Ser399 (seen in the structure))
T2 construct: Drosophila BiP signal cleaved off to give the native N terminus Gly78; Vector pMT-BiP-PURO; also called MDTCS(E225Q) active-site mutant; not shown: 6xHis, C-terminal, kept
T2 sequence (looked up): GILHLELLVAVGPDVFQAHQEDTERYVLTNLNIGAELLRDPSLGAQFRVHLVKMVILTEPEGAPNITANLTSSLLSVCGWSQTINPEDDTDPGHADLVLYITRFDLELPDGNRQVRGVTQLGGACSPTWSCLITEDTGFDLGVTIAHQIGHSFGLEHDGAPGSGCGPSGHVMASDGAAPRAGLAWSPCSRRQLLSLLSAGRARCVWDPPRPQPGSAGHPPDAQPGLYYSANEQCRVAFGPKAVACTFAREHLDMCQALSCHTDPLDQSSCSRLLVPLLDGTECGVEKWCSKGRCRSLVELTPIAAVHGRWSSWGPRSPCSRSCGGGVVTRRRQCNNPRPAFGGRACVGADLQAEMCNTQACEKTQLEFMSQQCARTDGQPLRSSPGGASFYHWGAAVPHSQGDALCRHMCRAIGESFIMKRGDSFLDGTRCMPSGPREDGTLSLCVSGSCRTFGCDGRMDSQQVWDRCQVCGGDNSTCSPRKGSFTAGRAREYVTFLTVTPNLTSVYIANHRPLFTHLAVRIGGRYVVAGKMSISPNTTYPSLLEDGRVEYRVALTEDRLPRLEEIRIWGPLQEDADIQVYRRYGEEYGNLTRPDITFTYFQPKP


Experiments:
VWF96-MP = VWF96-MP (human, UniProt P04275 1573-1668, L1603N); assay: ELISA
VWF96-Spacer = VWF96-Spacer (human, UniProt P04275 1573-1668, L1664T | V1665N | L1666Q); assay: ELISA
ADAMTS13 = target: T1, ADAMTS13; assay: ELISA; plate binding: 100 nM VWF96 or variant adsorbed on 96-well plates (50 mM sodium bicarbonate pH 9.6, overnight, 4 °C); 0-600 nM ADAMTS13 in PBS/1% BSA/80 mM EDTA, room temperature, 1.5 h (legend: 1 h); detected with biotinylated anti-ADAMTS13 TSP2-4 polyclonal antibody; one-site fit; apparent KD; conditions: one partner purified
ADAMTS13 MDTCS(E225Q) = target: T2, ADAMTS13 MDTCS(E225Q); assay: ITC; 27 μM MDTCS(E225Q) in the cell, injections of 279 μM tag-free VWF73; 20 mM HEPES pH 7.5, 150 mM NaCl, 5 mM CaCl2; 25 °C; mean of four experiments; conditions: both partners purified

Binder | Kd (ADAMTS13) [nM] | other results
ADAMTS13 (enzyme) AAGGILHLELLVAVGPDVFQAHQEDTERYVLTNLNIGAELLRDPSLGAQFRVHLVKMVILTEPEGAPNITANLTSSLLSVCGWSQTINPEDDTDPGHADLVLYITRFDLELPDGNRQVRGVTQLGGACSPTWSCLITEDTGFDLGVTIAHEIGHSFGLEHDGAPGSGCGPSGHVMASDGAAPRAGLAWSPCSRRQLLSLLSAGRARCVWDPPRPQPGSAGHPPDAQPGLYYSANEQCRVAFGPKAVACTFAREHLDMCQALSCHTDPLDQSSCSRLLVPLLDGTECGVEKWCSKGRCRSLVELTPIAAVHGRWSSWGPRSPCSRSCGGGVVTRRRQCNNPRPAFGGRACVGADLQAEMCNTQACEKTQLEFMSQQCARTDGQPLRSSPGGASFYHWGAAVPHSQGDALCRHMCRAIGESFIMKRGDSFLDGTRCMPSGPREDGTLSLCVSGSCRTFGCDGRMDSQQVWDRCQVCGGDNSTCSPRKGSFTAGRAREYVTFLTVTPNLTSVYIANHRPLFTHLAVRIGGRYVVAGKMSISPNTTYPSLLEDGRVEYRVALTEDRLPRLEEIRIWGPLQEDADIQVYRRYGEEYGNLTRPDITFTYFQPKPRQAWVWAAVRGPCSVSCGAGLRWVNYSCLDQARKELVETVQCQGSQQPPAWPEACVLEPCPPYWAVGDFGPCSASCGGGLRERPVRCVEAQGSLLKTLPPARCRAGAQQPAVALETCNPQPCPARWEVSEPSSCTSAGGAGLALENETCVPGADGLEAPVTEGPGSVDEKLPAPEPCVGMSCPPGWGHLDATSAGEKAPSPWGSIRTGAQAAHVWTPAAGSCSVSCGRGLMELRFLCMDSALRVPVQEELCGLASKPGSRREVCQAVPCPARWQYKLAACSVSCGRGVVRRILYCARAHGEDDGEEILLDTQCQGLPRPEPQEACSLEPCPPRWKVMSLGPCSASCGLGTARRSVACVQLDQGQDVEVDEAACAALVRPEASVPCLIADCTYRWHVGTWMECSVSCGDGIQRRRDTCLGPQAQAPVPADFCQHLPKPVTVRGCWAGPCVGQGTPSLVPHEEAAAPGRTTATPAGASLEWSQARGLLFSPAPQPRRLLPGPQENSVQSSACGRQHLEPTGTIDMRGPGQADCAVAIGRPLGEVVTLRVLESSLNCSAGDMLLLWGRLTWRKMCRKLLDMTFSSKTNTLVVRQRCGRPGGGVLLRYGSQLAPETFYRECDMQLFGPWGEIVSPSLSPATSNAGGCRLFINVAPHARIAIHALATNMGAGTEGANASYILIRDTHSLRTTAFHGQQVLYWESESSQAEMEFSEGFLKAQASLRGQYWTLQSWVPEMQDPQSWKGKEGT | – | Kd (VWF96-MP): 65 nM; Kd (VWF96-Spacer): 241 nM
VWF96 (VWF A2 domain fragment Gly1573-Arg1668 with N-terminal 6xHis-SUMO tag and C-terminal HSV-6xHis tag) (domain or fragment, von Willebrand factor, A2 domain fragment, residues Gly1573-Arg1668 (96 amino acids); SUMO tag is a derivative of yeast Smt3 (13 kDa, Invitrogen); Vector pET25b(+); About 32 kDa with tags; also called wild-type VWF96; source: E. coli BL21 (DE3), purified (Ni2+ HiTrap Chelating HP, Capto Q ImpRes); not shown: 6xHis-SUMO, N-terminal, kept; HSV-6xHis, C-terminal, kept) GNRTNTGLALRYLSDHSFLVSQGDREQAPNLVYMVTGNPASDEIKRLPGDIQVVPIGVGPNANVQELERIGWPNAPILIQDFETLPREAPDLVLQR | 40 | –
VWF87(ΔSpacer) (domain or fragment, von Willebrand factor, A2 domain fragment: VWF96 (Gly1573-Arg1668) with residues Glu1660-Arg1668 deleted, 87 amino acids; Variant of the VWF96 vector; the C-terminal HSV-6xHis tag follows residue 1659; source: E. coli BL21 (DE3), purified (Ni2+ HiTrap Chelating HP, Capto Q ImpRes); not shown: 6xHis-SUMO, N-terminal, kept; HSV-6xHis, C-terminal, kept) GNRTNTGLALRYLSDHSFLVSQGDREQAPNLVYMVTGNPASDEIKRLPGDIQVVPIGVGPNANVQELERIGWPNAPILIQDFETLPR | 475 | –
VWF96-Cys (domain or fragment, human, UniProt P04275 1573-1668, looked up, Variant of the VWF96 vector; source: E. coli BL21 (DE3), purified (Ni2+ HiTrap Chelating HP, Capto Q ImpRes); not shown: 6xHis-SUMO, N-terminal, kept; HSV-6xHis, C-terminal, kept) GNRTNTGLALRYLSDHSFLVSQGDREQAPNLVYMVTGNPASDEIKRLPGDIQVVPIGVGPNANVQELERQGYPNSPQQQQDFETLPREAPDLVLQR | 632 | –
VWF96-Dis (domain or fragment, human, UniProt P04275 1573-1668, looked up, Variant of the VWF96 vector; source: E. coli BL21 (DE3), purified (Ni2+ HiTrap Chelating HP, Capto Q ImpRes); not shown: 6xHis-SUMO, N-terminal, kept; HSV-6xHis, C-terminal, kept) GNRTNTGLALRYLSDHSFLVSQGDREQAPNLVYMVTGNPASAEQEELPGTIQVVPIGVGPNANVQELERIGWPNAPILIQDFETLPREAPDLVLQR | 615 | –
VWF73 (tag-free VWF A2 domain fragment Asp1596-Arg1668) (domain or fragment, von Willebrand factor, human, A2 domain fragment, residues Asp1596-Arg1668 (73 amino acids); Vector pET-SUMO; also called tag-free VWF73; source: E. coli One Shot BL21 Star (DE3), purified as VWF96; His-SUMO tag removed with SUMO protease-1, passed over Ni2+ column; not shown: 6xHis-SUMO, N-terminal, cleaved) DREQAPNLVYMVTGNPASDEIKRLPGDIQVVPIGVGPNANVQELERIGWPNAPILIQDFETLPREAPDLVLQR | – | Kd (ADAMTS13 MDTCS(E225Q)): 450 nM
